Values belong to the molecule of their own block, whether it stands above or below them.
Assays:
[1] = biological target: TSHR260-AP (fusion protein consisting of a fragment of human TSHR, amino acids 22-260, with alkaline phosphatase) (human); test: bridging ELISA: full length TSHR on wells, TSHR260-AP in liquid phase; IgG 0.5 µg/mL in HBD serum
[2] = biological target: TSHR260-AP (fusion protein consisting of a fragment of human TSHR, amino acids 22-260, with alkaline phosphatase) (human); test: bridging ELISA: full length TSHR on wells, TSHR260-AP in liquid phase; IgG 0.05 µg/mL in HBD serum
[3] = biological target: TSHR260-AP (fusion protein consisting of a fragment of human TSHR, amino acids 22-260, with alkaline phosphatase) (human); test: bridging ELISA: full length TSHR on wells, TSHR260-AP in liquid phase; IgG 1 µg/mL in HBD serum
[4] = biological target: TSHR260-AP (fusion protein consisting of a fragment of human TSHR, amino acids 22-260, with alkaline phosphatase) (human); test: bridging ELISA: full length TSHR on wells, TSHR260-AP in liquid phase; IgG 0.1 µg/mL in HBD serum
[5] = biological target: TSHR260-AP (fusion protein consisting of a fragment of human TSHR, amino acids 22-260, with alkaline phosphatase) (human); test: bridging ELISA: full length TSHR on wells, TSHR260-AP in liquid phase; IgG 0.005 µg/mL in HBD serum
[6] = biological target: TSHR260-AP (fusion protein consisting of a fragment of human TSHR, amino acids 22-260, with alkaline phosphatase) (human); test: bridging ELISA: full length TSHR on wells, TSHR260-AP in liquid phase; IgG 10 µg/mL in HBD serum
[7] = biological target: TSHR260-AP (fusion protein consisting of a fragment of human TSHR, amino acids 22-260, with alkaline phosphatase) (human); test: bridging ELISA: full length TSHR on wells, TSHR260-AP in liquid phase; IgG 0.01 µg/mL in HBD serum
[8] = biological target: T1, thyroid stimulating hormone receptor (TSHR), full length human (human, UniProt P16473 22-764); test: 125I-K1-18 Fab competition, TSHR coated tubes; 3 µg/mL in HBD
T1 construct: TSHR coated on plastic tubes; also called TSH receptor
Method: (§1) Binding inhibition assays were carried out using TSHR coated tubes as described in WO2004/050708A2. […] After aspiration, the tubes were washed and 100 μL of ¹²⁵I-labelled protein (5×10⁴ cpm) added and incubated for 1 hour at room temperature with shaking. The tubes were then aspirated, washed and counted in a gamma counter. Inhibition of labelled protein binding was calculated as 100×[1−(cpm bound in the presence of test material/cpm bound in the presence of control material)].

[9] = biological target: T1, thyroid stimulating hormone receptor …; test: 125I-K1-18 Fab competition, TSHR coated tubes; 30 µg/mL in HBD
Method: as §1

[10] = biological target: T1, thyroid stimulating hormone receptor …; test: 125I-K1-18 Fab competition, TSHR coated tubes; 100 µg/mL in HBD
Method: as §1

[11] = biological target: T1, thyroid stimulating hormone receptor …; test: 125I-K1-18 Fab competition, TSHR coated tubes; 10 µg/mL in assay buffer
Method: as §1

[12] = biological target: T1, thyroid stimulating hormone receptor …; test: 125I-K1-18 Fab competition, TSHR coated tubes; 3 µg/mL in assay buffer
Method: as §1

[13] = biological target: T1, thyroid stimulating hormone receptor …; test: 125I-K1-18 Fab competition, TSHR coated tubes; 1 µg/mL in HBD
Method: as §1

[14] = biological target: T1, thyroid stimulating hormone receptor …; test: 125I-K1-18 Fab competition, TSHR coated tubes; 100 µg/mL in assay buffer
Method: as §1

[15] = biological target: T1, thyroid stimulating hormone receptor …; test: 125I-K1-18 Fab competition, TSHR coated tubes; 0.1 µg/mL in assay buffer
Method: as §1

[16] = biological target: T1, thyroid stimulating hormone receptor …; test: 125I-K1-18 Fab competition, TSHR coated tubes; 10 µg/mL in HBD
Method: as §1

[17] = biological target: T1, thyroid stimulating hormone receptor …; test: 125I-K1-18 Fab competition, TSHR coated tubes; 0.1 µg/mL in HBD
Method: as §1

[18] = biological target: T1, thyroid stimulating hormone receptor …; test: 125I-K1-18 Fab competition, TSHR coated tubes; 30 µg/mL in assay buffer
Method: as §1

[19] = biological target: T1, thyroid stimulating hormone receptor …; test: 125I-K1-18 Fab competition, TSHR coated tubes; 1 µg/mL in assay buffer
Method: as §1

TSHR260 = biological target: T2, TSHR260 (human, UniProt P16473 22-260); test: Scatchard analysis, TSHR260 coated tubes (mean±SD, n=3)
T2 construct: Expressed in insect cells; coated on tubes or wells by way of a mouse TSHR MAb (14C4 F(ab')2 in the stability ELISA); also called TSHR fragment of amino acids 22-260

[20] = biological target: T3, full length human TSHR, detergent-solubilised, coated on tubes or ELISA plate wells (human, UniProt P16473 22-764); test: Scatchard analysis, 125I-labelled antibody on full length TSHR coated tubes (mean±SD, n=3)
T3 construct: Full length receptor expressed in CHO cells, solubilised with detergent and held on the plastic by a mouse MAb to the C-terminus; The leader 1-21 is stated for the TSHR260 construct of the same receptor; also called TSH receptor; TSHR (full length)

[21] = biological target: T3, full length human TSHR, …; test: Scatchard analysis, full length TSHR coated tubes (mean±SD, n=3)
[22] = biological target: T4, human TSH receptor, full length, detergent-solubilised, coated on tubes or ELISA plate wells (human, UniProt P16473 22-764); test: TSHR binding affinity (summary table; Scatchard analysis, TSHR coated tubes)
T4 construct: Full length recombinant receptor expressed in CHO cells, solubilised and coated via a C-terminal antibody; also called wild type TSHR; full length TSHR

Mean absorbance at 405 nm (absorbance at 405 nm) [1]: 0.273 | Mean absorbance at 405 nm (absorbance at 405 nm) [2]: 0.056 | Mean absorbance at 405 nm (absorbance at 405 nm) [3]: 0.329 | Mean absorbance at 405 nm (absorbance at 405 nm) [4]: 0.102 | Mean absorbance at 405 nm (absorbance at 405 nm) [5]: 0.006 | Mean absorbance at 405 nm (absorbance at 405 nm) [6]: 0.481 | Mean absorbance at 405 nm (absorbance at 405 nm) [7]: 0.011
Molecule: 9D33 IgG (mouse TSHR blocking MAb) (antibody)

Inhibition of binding (%) [8]: 95.3% | Inhibition of binding (%) [9]: 95.5% | Inhibition of binding (%) [10]: 95.6% | Inhibition of binding (%) [11]: 94.6% | Inhibition of binding (%) [12]: 94.5% | Inhibition of binding (%) [13]: 94% | Inhibition of binding (%) [14]: 94.8% | Inhibition of binding (%) [15]: 73.8% | Inhibition of binding (%) [16]: 95.8% | Inhibition of binding (%) [17]: 60.1% | Inhibition of binding (%) [18]: 95.1% | Inhibition of binding (%) [19]: 94%
B1: K1-70 IgG (antibody, V domains shown)
VH: EVQLVQSGAEVKKPGQSLKISCKASGYSLTDNWIGWVRQKPGKGLEWMGIIYPGDSDTRYSPSFQGQVTISADKSINTAYLQWSSLKASDTAIYYCVGLDWNYNPLRYWGPGTLVTVSS
VL: QSVLTQPPSVSAAPGQKVTISCSGSSSDIGSNYVSWYQQFPGTAPKLLIYDNNKRPSAIPDRFSGSKSGTSATLGITGLQTGDEADYYCGTWDSRLGIAVFGGGTQLTVLG
notes: Human IgG1 lambda purified from hetero-hybridoma supernatant; also called human monoclonal autoantibody K1-70

Ka (TSHR260): 3.1e+10 M⁻¹ | Ka [20]: 3.9e+10 M⁻¹
B2: K1-70 IgG (antibody, V domains shown)
VH: B1 VH
VL: B1 VL
modifications: N-terminus blocked; deblocked with pyroglutamate aminopeptidase for Edman sequencing
notes: Human IgG1 lambda purified from hetero-hybridoma supernatant; also called human MAb K1-70

Ka [21]: 2.3e+10 M⁻¹ | Ka (TSHR260): 9.3e+09 M⁻¹
B3: K1-70 Fab (Fab, V domains shown)
VH: B1 VH
VL: B1 VL
modifications: N-terminus blocked; deblocked with pyroglutamate aminopeptidase for Edman sequencing

Inhibition of binding (%) [8]: 82.8% | Inhibition of binding (%) [9]: 82.6% | Inhibition of binding (%) [10]: 84.8% | Inhibition of binding (%) [11]: 83.5% | Inhibition of binding (%) [12]: 81.1% | Inhibition of binding (%) [13]: 79.2% | Inhibition of binding (%) [14]: 86.2% | Inhibition of binding (%) [15]: 62.5% | Inhibition of binding (%) [16]: 81.6% | Inhibition of binding (%) [17]: 43.9% | Inhibition of binding (%) [18]: 84.2% | Inhibition of binding (%) [19]: 81.5%
B4: K1-18 Fab (Fab, V domains shown)
VH: EVQLVQSGAEVKKPGESLKISCKGSGYSFTNYWIGWVRQMPGKGLEWMGIIYPYDSDTRYSPSFEGQVTISADKSIRTAYLHWSSLKASDTAMYYCVRPRDGSYPYDAFDIWGQGTMVTVSS
VL: EIVLTQSPGTLSLSPGERATLSCRASQSVSNNYLAWYQQKPGQAPRLLIYGASSRATGIPDRFSGSGSGTDFTLTISRLEPEDFAVYYCQHCGSSLRAFGQGTKVEIKR

Ka [22]: 1.3e+09 M⁻¹
B5: K1-18 Fab (Fab, V domains shown)
VH: B4 VH
VL: B4 VL
notes: also called Fab of K1-18

Ka [22]: 7e+09 M⁻¹
B6: K1-18 IgG (human monoclonal TSHR autoantibody with stimulating activity) (antibody, V domains shown)
VH: B4 VH
VL: B4 VL
notes: IgG1 kappa purified from hetero-hybridoma supernatant; also called stimulating MAb K1-18 (IgG1 kappa)

Ka [21]: 1.8e+09 M⁻¹
B7: K1-18 Fab (Fab, V domains shown)
VH: B4 VH
VL: B4 VL

Source: patent US20110300138A1 (published 2011)
